Test results reported in patent publication US20210393776A1 (FABION PHARMACEUTICALS, published 2021).
Read-outs that look alike come from different tables or passages of the source.

Experiments:
[1] = molecular target: T1, recombinant cyno CD3epsilon/delta Fc(K-H) heterodimer (cynomolgus); experiment: ELISA, immobilised antigen, biotinylated protein, streptavidin-HRP, ABTS, OD405
T1 construct: also called cynomolgus CD3epsilon/delta; recombinant cyno CD3epsilon/delta heterodimeric Fc protein; copies: 1 + 1

[2] = molecular target: T2, full length human EpCAM on CHO cells (human, UniProt P16422 24-314); experiment: flow cytometry on CHO cells stably expressing full length human EpCAM, PE detection
T2 construct: CHO cells stably expressing full length human EpCAM; also called hu-EpCAM-FL; human EpCAM-FL
T2 sequence: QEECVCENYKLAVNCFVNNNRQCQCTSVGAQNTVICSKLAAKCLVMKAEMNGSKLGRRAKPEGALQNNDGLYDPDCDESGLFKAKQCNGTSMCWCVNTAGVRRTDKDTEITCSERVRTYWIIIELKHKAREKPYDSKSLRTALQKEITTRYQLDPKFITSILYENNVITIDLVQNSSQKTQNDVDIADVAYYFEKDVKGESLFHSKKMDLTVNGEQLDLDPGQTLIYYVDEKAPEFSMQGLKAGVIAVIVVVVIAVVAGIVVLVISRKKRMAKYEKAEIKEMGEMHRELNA

[3] = molecular target: T3, human CD3epsilonAA1-27.Fc (human); experiment: ELISA, immobilised antigen, biotinylated protein, streptavidin-HRP, ABTS, OD405
T3 construct: also called recombinant human CD3epsilon N-terminal peptide (aa1-27.Fc fusion); CD3epsilon N-terminal amino acid 1-27 peptide Fc fusion

[4] = molecular target: T4, human CD3 on cells (Jurkat cells; T cells in human PBMCs) (human, UniProt P07766 23-207); experiment: flow cytometry on Jurkat cells, biotinylated protein, streptavidin-PE
T4 construct: whole, on cells; the other chains of the complex are present on the cells; also called CD3 on Jurkat cells; CD3 on T cells in PBMC preparation

[5] = molecular target: T1, recombinant cyno CD3epsilon/delta …; experiment: ELISA, immobilised antigen, biotinylated protein, streptavidin-HRP, ABTS, OD405; remark: listed apart in the source
[6] = molecular target: T3, human CD3epsilonAA1-27.Fc; experiment: as above; remark: listed apart in the source
[7] = molecular target: T2, full length human EpCAM on CHO cells; experiment: flow cytometry on CHO cells stably expressing full length human EpCAM, PE detection; remark: listed apart in the source
[8] = molecular target: T1, recombinant cyno CD3epsilon/delta …; experiment: ELISA, immobilised antigen, biotinylated protein, streptavidin-HRP, ABTS, OD405; remark: listed apart in the source
[9] = molecular target: T3, human CD3epsilonAA1-27.Fc; experiment: as above; remark: listed apart in the source
[10] = molecular target: T2, full length human EpCAM on CHO cells; experiment: flow cytometry on CHO cells stably expressing full length human EpCAM, PE detection; remark: listed apart in the source

B1: EpCAM2.2-(H)-hu-1F3.1 Fab (bispecific antibody)
heavy chain Fd with anti-EpCAM scFv EpCAM2.2 at the N-terminus: QVQLQESGPGLVKPSETLTLTCSVSGGSISGYYWSWIRQPPGMGLEWIGSVHHSGSTSYNPSLKSRVTISVDTSKNQFSLKLNSVTAADTAVYYCARYRGSGLDYWGQGTLVTVSSGGGGSGGGGSGGGGSQSVLTQPPSVSAAPGQKVTISCSGDSSNIGKNYVSWYQQLPGTAPKLLIYENNERPSGVPDRFSGSKSGTSATLGITGLQTGDEADYYCAAWDTSLSARVFGGGTKVTVLGRAEVQLVESGGGLVQPGGSLRLSCAASGFTFSTYAMNWVRQAPGKGLEWVSRIRSKYNNYATYYADSVKDRFTISRDDSKNTLYLQMNSLRAEDTAVYYCARHGNFGNSYVSWFAYWGQGTMVTVSSASTKGPSVFPLAPCSRSTSESTAALGCLVKDYFPEPVTVSWNSGALTSGVHTFPAVLQSSGLYSLSSVVTVPSSNFGTQTYTCNVDHKPSNTKVDKTVGGGGSHHHHHHH
light chain, unfused: QAVVTQEPSLTVSPGGTVTLTCRSSTGAVTTSNYANWVQQKPGQAPRGLIGGTNKRAPGTPARFSGSLLGGKAALTLSGVQPEDEAEYYCALWYSNLWVFGGGTKLTVLGQPKAAPSVTLFPPSSEELQANKATLVCLISDFYPGAVTVAWKADSSPVKAGVETTTPSKQSNNKYAASSYLSLTPEQWKSHRSYSCQVTHEGSTVEKTVAPTECS
notes: member of groups m21 and m31
[1]
  EC50 (read off the curve): ~2 nM
[2]
  binding result: binds

B2: EpCAM2.2-(H+L)-hu-1F3.1 MSFP (bispecific antibody)
heavy: B1 heavy chain Fd with anti-EpCAM scFv EpCAM2.2 at the N-terminus
light: QVQLQESGPGLVKPSETLTLTCSVSGGSISGYYWSWIRQPPGMGLEWIGSVHHSGSTSYNPSLKSRVTISVDTSKNQFSLKLNSVTAADTAVYYCARYRGSGLDYWGQGTLVTVSSGGGGSGGGGSGGGGSQSVLTQPPSVSAAPGQKVTISCSGDSSNIGKNYVSWYQQLPGTAPKLLIYENNERPSGVPDRFSGSKSGTSATLGITGLQTGDEADYYCAAWDTSLSARVFGGGTKVTVLGRAQAVVTQEPSLTVSPGGTVTLTCRSSTGAVTTSNYANWVQQKPGQAPRGLIGGTNKRAPGTPARFSGSLLGGKAALTLSGVQPEDEAEYYCALWYSNLWVFGGGTKLTVLGQPKAAPSVTLFPPSSEELQANKATLVCLISDFYPGAVTVAWKADSSPVKAGVETTTPSKQSNNKYAASSYLSLTPEQWKSHRSYSCQVTHEGSTVEKTVAPTECS
notes: (H + L) format has a GlyArgAla linker on both chains; His tag at the C-terminus of the Fd; also called double fusion of EpCAM2.2 scFv to both the HC and LC of hu-1F3.1 Fab
[1]
  EC50 (read off the curve): ~3 nM
[3]
  EC50 (read off the curve): ~3 nM

B3: anti EpCAM scFv fusion to the LC alone of OKT3 Fab (bispecific antibody)
heavy: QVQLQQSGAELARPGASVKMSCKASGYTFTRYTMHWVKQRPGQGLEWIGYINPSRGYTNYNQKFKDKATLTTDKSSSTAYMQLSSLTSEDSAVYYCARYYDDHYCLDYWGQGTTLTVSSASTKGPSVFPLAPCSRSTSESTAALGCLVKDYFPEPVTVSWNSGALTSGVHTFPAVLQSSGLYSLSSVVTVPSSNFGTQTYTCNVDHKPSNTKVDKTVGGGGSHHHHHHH
light: QVQLQQSGGGLVQPGGSLRLSCAASGFTFSNYWMSWVRQAPGKGLEWVANIKQDGSEKFYVDSVKGRFTISRDNAKNSLYLQMNSLRAEDMAVYYCARVGGAWELGYWGQGTLVTVSAGGGGSGGGGSGGGGSGAQSVLTQPPSVSGAPGQRVTISCTGSSSNIGSYYGVHWYQQIPGTAPKLLIYSDTNRPSGVPDRFSGSKSGTSASLAITGLQAEDEADYYCQSYDSSLSGRVFGGGTKVTVLGRAQIVLTQSPAIMSASPGEKVTMTCSASSSVSYMNWYQQKSGTSPKRWIYDTSKLASGVPAHFRGSGSGTSYSLTISGMEAEDAATYYCQQWSSNPFTFGSGTKLEINRTVAAPSVFIFPPSDEQLKSGTASVVCLLNNFYPREAKVQWKVDNALQSGNSQESVTEQDSKDSTYSLSSTLTLSKADYEKHKVYACEVTHQGLSSPVTKSFNRGEC
notes: also called EpCAM1.1×OKT3 Fab fusion, LC only
[4]
  binding result: no binding
[5]
  binding result: no binding (tested: about 80 nM (last point; axis to 100 nM))
[6]
  binding result: no binding (tested: about 80 nM (last point; axis to 100 nM))
[7]
  binding result: binds

B4: anti EpCAM scFv fusion to both HC and LC of OKT3 Fab (bispecific antibody)
heavy: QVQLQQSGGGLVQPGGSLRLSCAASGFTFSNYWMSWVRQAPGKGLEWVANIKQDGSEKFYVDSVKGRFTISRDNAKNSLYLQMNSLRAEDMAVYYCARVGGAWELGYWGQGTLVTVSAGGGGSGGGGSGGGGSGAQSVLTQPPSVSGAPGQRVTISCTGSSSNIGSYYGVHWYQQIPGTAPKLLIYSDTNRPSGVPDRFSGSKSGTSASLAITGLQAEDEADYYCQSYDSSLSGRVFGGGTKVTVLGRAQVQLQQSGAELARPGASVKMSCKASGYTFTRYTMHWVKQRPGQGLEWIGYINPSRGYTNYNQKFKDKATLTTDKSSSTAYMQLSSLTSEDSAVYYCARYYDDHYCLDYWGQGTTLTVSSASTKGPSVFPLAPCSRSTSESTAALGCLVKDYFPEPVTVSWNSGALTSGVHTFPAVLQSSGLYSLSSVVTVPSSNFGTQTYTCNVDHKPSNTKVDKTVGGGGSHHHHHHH
light: B3 light
notes: also called EpCAM1.1×OKT3 Fab fusion, HC and LC
[4]
  binding result: no binding
[5]
  binding result: no binding (tested: about 80 nM (last point; axis to 100 nM))
[6]
  binding result: no binding (tested: about 80 nM (last point; axis to 100 nM))
[7]
  binding result: binds

B5: EpCAM1.1-(L)-hu-1F3.1 Fab (bispecific antibody)
heavy chain Fd (VH-CH1), unfused: EVQLVESGGGLVQPGGSLRLSCAASGFTFSTYAMNWVRQAPGKGLEWVSRIRSKYNNYATYYADSVKDRFTISRDDSKNTLYLQMNSLRAEDTAVYYCARHGNFGNSYVSWFAYWGQGTMVTVSSASTKGPSVFPLAPCSRSTSESTAALGCLVKDYFPEPVTVSWNSGALTSGVHTFPAVLQSSGLYSLSSVVTVPSSNFGTQTYTCNVDHKPSNTKVDKTVGGGGSHHHHHHH
light chain with anti-EpCAM scFv EpCAM1.1 at the N-terminus: QVQLQQSGGGLVQPGGSLRLSCAASGFTFSNYWMSWVRQAPGKGLEWVANIKQDGSEKFYVDSVKGRFTISRDNAKNSLYLQMNSLRAEDMAVYYCARVGGAWELGYWGQGTLVTVSAGGGGSGGGGSGGGGSGAQSVLTQPPSVSGAPGQRVTISCTGSSSNIGSYYGVHWYQQIPGTAPKLLIYSDTNRPSGVPDRFSGSKSGTSASLAITGLQAEDEADYYCQSYDSSLSGRVFGGGTKVTVLGRAQAVVTQEPSLTVSPGGTVTLTCRSSTGAVTTSNYANWVQQKPGQAPRGLIGGTNKRAPGTPARFSGSLLGGKAALTLSGVQPEDEAEYYCALWYSNLWVFGGGTKLTVLGQPKAAPSVTLFPPSSEELQANKATLVCLISDFYPGAVTVAWKADSSPVKAGVETTTPSKQSNNKYAASSYLSLTPEQWKSHRSYSCQVTHEGSTVEKTVAPTECS
notes: member of group m19; also called EpCAM1.1-(L)-hu-1F3 Fab
[8]
  binding result: binds
[9]
  binding result: binds
[10]
  binding result: binds

B6: EpCAM1.1-(H+L)-hu-1F3.1 Fab (bispecific antibody)
heavy chain Fd with anti-EpCAM scFv EpCAM1.1 at the N-terminus: QVQLQQSGGGLVQPGGSLRLSCAASGFTFSNYWMSWVRQAPGKGLEWVANIKQDGSEKFYVDSVKGRFTISRDNAKNSLYLQMNSLRAEDMAVYYCARVGGAWELGYWGQGTLVTVSAGGGGSGGGGSGGGGSGAQSVLTQPPSVSGAPGQRVTISCTGSSSNIGSYYGVHWYQQIPGTAPKLLIYSDTNRPSGVPDRFSGSKSGTSASLAITGLQAEDEADYYCQSYDSSLSGRVFGGGTKVTVLGRAEVQLVESGGGLVQPGGSLRLSCAASGFTFSTYAMNWVRQAPGKGLEWVSRIRSKYNNYATYYADSVKDRFTISRDDSKNTLYLQMNSLRAEDTAVYYCARHGNFGNSYVSWFAYWGQGTMVTVSSASTKGPSVFPLAPCSRSTSESTAALGCLVKDYFPEPVTVSWNSGALTSGVHTFPAVLQSSGLYSLSSVVTVPSSNFGTQTYTCNVDHKPSNTKVDKTVGGGGSHHHHHHH
light chain with anti-EpCAM scFv EpCAM1.1 at the N-terminus: B5 light chain with anti-EpCAM scFv EpCAM1.1 at the N-terminus
notes: member of group m19; also called EpCAM1.1-(H+L)-hu-1F3 Fab
[8]
  binding result: binds
[9]
  binding result: binds
[10]
  binding result: binds

B7: EpCAM2.2-(L)-hu-1F3.1 Fab (bispecific antibody)
heavy chain Fd (VH-CH1), unfused: B5 heavy chain Fd (VH-CH1), unfused
light chain with anti-EpCAM scFv EpCAM2.2 at the N-terminus: B2 light
notes: member of groups m21 and m31; also called EpCAM2.2-(L)-hu-1F3 Fab
[1]
  binding result: binds
[3]
  EC50 (read off the curve): ~2 nM
[2]
  binding result: binds
